The text below walks through data of the RNAGym collection of RNA variant scans (doi:10.7554/elife.80360).

B1: Twister Ribozyme (parent)
chain: AACACUGCCAAUGCCGGUCCCAAGCCCGGAUAAAAGUGGAGGGGGCGG

The data set covers variants of B1. Kind of data set: self-cleavage, relative activity (ratio to wild type); higher = more cleavage; co-transcriptional.
As for AACACUGCCAAUGCCGGUCCCAAACCCGGAUAAAAGUGGAGGGAGCGG [G24A G44A], the self-cleavage is 0.101.
With AACACAGCCAAUGCCGGUCCCAGGCCCGGAUAAAAGUGGAGGGGGCGG [U6A A23G] the figure was 0.14.
Take AACACUGCCAAUGCCGGCCCCAAGCCCGGAUAAAAAUGGAGGGGGCGG [U18C G36A]: the self-cleavage turned out to be 0.158.
Take UACACUGCCAAUGCCGGUUCCAAGCCCGGAUAAAAGUGGAGGGGGCGG [A1U C19U]: the self-cleavage turned out to be 0.0395.
Regarding AACACUGCCAAUGCCGGUCCCAAGCCCGGAUAAAAGUGGACGGGGCGG [G41C], the self-cleavage was found to be 0.326.
With AACACUGCCAAAUCCGGUCCCAAGCCCGGAUAAAAGUGGAGGGGGCGG [U12A G13U] the figure was 0.577.
For AACACUGCCAAUGCCGGUCCCAAGCCCGUAUAAAAGUCGAGGGGGCGG [G29U G38C], the self-cleavage is 0.778.
As for AUCACUGCCAAUUCCGGUCCCAAGCCCGGAUAAAAGUGGAGGGGGCGG [A2U G13U], the self-cleavage came out at 0.103.
Consider AACACUGCCAAUGCCGGUCCCAAGCCCUGAUAAACGUGGAGGGGGCGG [G28U A35C], for which the self-cleavage amounted to 0.888.
On to AACAGUGCCAAUGCCGAUCCCAAGCCCGGAUAAAAGUGGAGGGGGCGG [C5G G17A], for which the self-cleavage was found to be 0.0746.
As for AACACUGCCAAUGCCGGUCCCAAGCCCCGAUAAAAGUGGAGGGGGCGG [G28C], the self-cleavage amounted to 0.894.
For the variant AACACCGCCAAUGCCGGUGCCAAGCCCGGAUAAAAGUGGAGGGGGCGG [U6C C19G], the self-cleavage was determined as 0.0653.
With AACACUGCCAAUGCCGGUCCCAAGCCCUGAUAAAAGUGGAGGGGCCGG [G28U G45C] the figure was 0.175; with AACAUUGCCAAUGCCGGUCCCAAGCCCGGAUAAAAGUGGAGGGGGUGG [C5U C46U], 0.825; with AACACUGCCAAUGCCGGUGCCAAGCCCAGAUAAAAGUGGAGGGGGCGG [C19G G28A], 0.211.
Consider AACACUGCCAAUGCCGGUCCCAAGCCCGGAUAAAUGUGGAGGGGGCGA [A35U G48A], for which the self-cleavage was 1.02.
In the case of AACACUGCCGAUGCCGGUCCCAAGCCCGGAUAAAAGUGGCGGGGGCGG [A10G A40C], the self-cleavage came out at 0.46.
With AACACUGCCAAUCCCGGUCCCAAGCCCGGAUAAAAGUUGAGGGGGCGG [G13C G38U] the figure was 0.158.
Take AACACUGCCAAUGCCAGUCCCAAGCCCGGAUAAAAGUGGAGGGGGCGU [G16A G48U]: the self-cleavage turned out to be 0.917.
As for AACACUGCGAAUGCCGGUCCCAAGCCCGGAUAAAAGUGGAGGCGGCGG [C9G G43C], the self-cleavage worked out at 0.132.
CACACUGCCAAUGCCGGUCCCAAGCCCGGAUAAAUGUGGAGGGGGCGG [A1C A35U]: the self-cleavage was 0.129.
Take AACACUGCCAAUGCCGGUCCCAAGCCCGGAUCAAAGUGGAAGGGGCGG [A32C G41A]: the self-cleavage was 0.556.
With AACACUGCCAAUGCCGGGCCCAAGCCCGGAUAAAAGUGGAGGGAGCGG [U18G G44A], the self-cleavage was 0.0959.
On to AACACCGCCAAUGCCGGUCCCAAGCCCGGAUAAACGUGGAGGGGGCGG [U6C A35C], for which the self-cleavage was found to be 0.403.
With AACACUGCCAAUGCCGGUCUGAAGCCCGGAUAAAAGUGGAGGGGGCGG [C20U C21G], the self-cleavage was 0.0649.
Turning to AACACUGCCCAUGCCCGUCCCAAGCCCGGAUAAAAGUGGAGGGGGCGG [A10C G16C], the self-cleavage was determined as 0.526.
AACAAUUCCAAUGCCGGUCCCAAGCCCGGAUAAAAGUGGAGGGGGCGG [C5A G7U]: the self-cleavage stood at 0.0804.
For the variant AGCACUGCCGAUGCCGGUCCCAAGCCCGGAUAAAAGUGGAGGGGGCGG [A2G A10G], the self-cleavage amounted to 0.312.
AACACUGCCAAUGCCGGUCACAAGCCCGGAUAAAAGUGGCGGGGGCGG [C20A A40C]: the self-cleavage amounted to 0.129.
With AACACUGGCAAUGCCGGUCCCAAGCCCGGAUAAAAGUGGAGGGGGUGG [C8G C46U], the self-cleavage amounted to 0.424.
In the case of AACACGGCCAAUGCCGGUCCCAAGCCCGGAUAAACGUGGAGGGGGCGG [U6G A35C], the self-cleavage was 0.678.
On to AACACUGCCAAUGCCGGUCCCAAGCCUGGAUAAAGGUGGAGGGGGCGG [C27U A35G], for which the self-cleavage came out at 0.271.
As for AACACUGCCAAUGCCGGUCCCAAGCCCGGAUAAAAGUGGAGAGUGCGG [G42A G44U], the self-cleavage stood at 0.173.
With AACACUGCCAAUGCCGGUCCCAAGCCCGGAUAAAAGUGCAGCGGGCGG [G39C G42C] the figure was 0.129; with AACACUGCCAAUGCCGGACCCAAGCCCGGAUAAAAGUGGAGAGGGCGG [U18A G42A], 0.104.
For the variant AACACUUCCAAUGCCGGUCCCAAGCCGGGAUAAAAGUGGAGGGGGCGG [G7U C27G], the self-cleavage is 0.0829.
As to AACACUGCCAAUGCCGGUGGCAAGCCCGGAUAAAAGUGGAGGGGGCGG [C19G C20G], the self-cleavage was 0.0478.
Consider AACACUGCCAAUGCCGUUCCCAAGCCCGGAUAAAAGUGGCGGGGGCGG [G17U A40C], for which the self-cleavage was 0.123.
Consider AACACUGCCAAUGCCGGUCCCAAGCCCGGAUAAGAGUGGAGGGGGCAG [A34G G47A], for which the self-cleavage stood at 0.477.
Then AACACUGGCAAUGCCGGUCCCAAGCCCGGAUACAAGUGGAGGGGGCGG [C8G A33C], with 0.203.
AACACUGCCAAUCCCGGCCCCAAGCCCGGAUAAAAGUGGAGGGGGCGG [G13C U18C]: the self-cleavage is 0.0885.
As to AACACAGCCAAUGCCGGUCCCAAGCCCGGAUAAACGUGGAGGGGGCGG [U6A A35C], the self-cleavage came to 1.04.
With AACACUGCCAAUGCCCGUCCCAAGCCCGGAUAAAAGUGGGGGGGGCGG [G16C A40G], the self-cleavage is 0.135.
AACACUGCCAAUGCCGGUCCUAAGCCCGGAGAAAAGUGGAGGGGGCGG [C21U U31G]: the self-cleavage was 0.115.
As to AACACUGCCAAUGCCGGUCCCAAGCCCAGAUAAAAGUGGCGGGGGCGG [G28A A40C], the self-cleavage turned out to be 0.163.
Regarding AACGCUGCCAACGCCGGUCCCAAGCCCGGAUAAAAGUGGAGGGGGCGG [A4G U12C], the self-cleavage stood at 0.811.
For the variant AACUCUGCCAAUGCCGGGCCCAAGCCCGGAUAAAAGUGGAGGGGGCGG [A4U U18G], the self-cleavage is 0.0369.
As for AACACUGCCAAUGCCGGUCCCUAGCCCGGAUAAAAGUGGAGGGGGCCG [A22U G47C], the self-cleavage was 0.216.
As to AACACUGCCACUGCCGGUCCCAAGCCCGGAUAAAAGUGGAGGGGGAGG [A11C C46A], the self-cleavage is 0.908.
Turning to AACACUGCCAAUGCAGGUCCCAAGCCCGGAUAAAAGUGGAGGGGGAGG [C15A C46A], the self-cleavage came out at 0.565.
With AACACUGCCAAUGCCGGUCACAAGCCCGAAUAAAAGUGGAGGGGGCGG [C20A G29A] the figure was 0.138; with AACACUGCCAAUGCCGGGCCCAAGCCCAGAUAAAAGUGGAGGGGGCGG [U18G G28A], 0.0711; with AACACUGCCAAUGCCCGUCCCAAGCCUGGAUAAAAGUGGAGGGGGCGG [G16C C27U], 0.854.
With AACACUGCCACUGCCGGUUCCAAGCCCGGAUAAAAGUGGAGGGGGCGG [A11C C19U] the figure was 0.627.
